Like-named read-outs stand apart in the source and are kept apart here. Blank lines part the entries; values can stand above or below the molecule they belong to.
Tests used:
[1] = target: mono-nucleosome with extra-nucleosomal linker DNA (185-bp '601'), Oregon green 488 on H2B D51C (NCP^185) (human) (UniProt Q6FI13); assay: other fluorescence titration
BARD1 141-216 [2] = target: T1, BARD1 141-216 (UniProt Q99728 141-216); assay: NMR
BARD1 124-270 = BARD1 124-270 (UniProt Q99728 124-270); assay: NMR
Chain of BARD1 124-270 (Q99728 124-270): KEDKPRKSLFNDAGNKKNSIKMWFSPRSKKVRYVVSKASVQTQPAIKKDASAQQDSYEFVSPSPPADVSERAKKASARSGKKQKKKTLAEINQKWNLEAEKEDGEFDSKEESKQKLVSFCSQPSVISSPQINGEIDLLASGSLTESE

BARD1 141-216 [3] = target: T1, BARD1 141-216; assay: NMR; remark: listed apart in the source

T1 sequence (Q99728 141-216): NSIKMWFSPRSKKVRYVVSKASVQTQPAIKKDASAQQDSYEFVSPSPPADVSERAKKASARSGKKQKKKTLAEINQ

fold increase in binding affinity with linker DNA (NCP^185 against NCP^147) [1]: < 2 fold
Molecule: BRCA1^RING/BARD1^216 heterodimer (from UniProt P38398 1-112; Q99728 1-216) (complex)

B1: 36-mer dsDNA (dsDNA)
DNA 1: CCTACGACGCCTGGGGTACCAGCGCAATTGTGTACC
DNA 2: GGTACACAATTGCGCTGGTACCCCAGGCGTCGTAGG
binding result (BARD1 141-216 [2]): binds
binding result (BARD1 124-270): binds

B2: 36-mer bubble-DNA (mixed)
DNA 1: CCTACGACGCCTGGCTCTTTCCCGCAATTGTGTACC
DNA 2: B1 DNA 2
binding result (BARD1 141-216 [3]): binds
